Assay results from publication PMC9800720, “Size-advantage of monovalent nanobodies against the macrophage mannose receptor for deep tumor penetration and tumor-associated macrophage targeting” (Theranostics, 2023).

Biological target: T1, recombinant murine MMR protein (Macrophage Mannose Receptor, CD206) (Mus musculus, UniProt Q61830)
T1 construct: Macrophage Mannose Receptor (MMR, CD206), mouse, recombinant protein of R&D systems, catalogue 2535-MM; also called recombinant mouse MMR protein; MMR Ag; source: bought: R&D systems (2535-MM)
T1 sequence (Q61830 20-1388): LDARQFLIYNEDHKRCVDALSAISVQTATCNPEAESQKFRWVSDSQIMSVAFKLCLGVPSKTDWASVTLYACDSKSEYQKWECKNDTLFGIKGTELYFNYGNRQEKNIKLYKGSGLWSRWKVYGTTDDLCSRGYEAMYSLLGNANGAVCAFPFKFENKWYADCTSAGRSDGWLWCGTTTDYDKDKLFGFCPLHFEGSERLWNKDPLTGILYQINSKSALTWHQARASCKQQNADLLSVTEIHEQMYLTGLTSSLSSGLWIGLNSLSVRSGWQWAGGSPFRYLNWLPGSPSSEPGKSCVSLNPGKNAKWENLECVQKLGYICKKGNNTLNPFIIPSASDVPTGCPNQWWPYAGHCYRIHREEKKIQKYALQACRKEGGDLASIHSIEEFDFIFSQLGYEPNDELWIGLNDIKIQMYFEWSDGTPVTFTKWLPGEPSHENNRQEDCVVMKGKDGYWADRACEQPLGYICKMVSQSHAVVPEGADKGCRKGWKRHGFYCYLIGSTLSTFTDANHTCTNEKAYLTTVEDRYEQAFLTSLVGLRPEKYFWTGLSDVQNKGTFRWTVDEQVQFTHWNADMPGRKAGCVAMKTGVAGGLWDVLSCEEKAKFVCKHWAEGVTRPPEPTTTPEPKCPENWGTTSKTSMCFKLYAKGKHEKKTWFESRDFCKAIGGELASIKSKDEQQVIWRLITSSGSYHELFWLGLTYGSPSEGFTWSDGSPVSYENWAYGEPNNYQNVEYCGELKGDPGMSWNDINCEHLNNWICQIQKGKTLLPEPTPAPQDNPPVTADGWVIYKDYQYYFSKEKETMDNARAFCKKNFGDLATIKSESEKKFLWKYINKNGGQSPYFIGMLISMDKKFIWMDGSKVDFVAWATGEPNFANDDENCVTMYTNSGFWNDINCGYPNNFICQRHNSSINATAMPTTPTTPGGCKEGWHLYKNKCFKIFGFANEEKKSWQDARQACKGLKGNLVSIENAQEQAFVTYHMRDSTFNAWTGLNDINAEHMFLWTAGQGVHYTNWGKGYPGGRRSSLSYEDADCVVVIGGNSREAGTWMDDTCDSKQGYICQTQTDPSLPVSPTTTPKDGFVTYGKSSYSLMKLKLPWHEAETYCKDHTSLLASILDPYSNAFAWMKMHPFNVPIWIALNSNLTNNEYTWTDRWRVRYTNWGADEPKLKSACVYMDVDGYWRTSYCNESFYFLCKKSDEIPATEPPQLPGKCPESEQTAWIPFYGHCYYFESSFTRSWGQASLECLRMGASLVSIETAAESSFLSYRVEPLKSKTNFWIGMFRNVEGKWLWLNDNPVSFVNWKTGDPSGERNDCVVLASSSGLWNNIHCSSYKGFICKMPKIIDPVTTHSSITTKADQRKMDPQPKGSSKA
Assay: SPR; Biacore T200; recombinant murine MMR immobilised on a CM5 chip by amine coupling at pH 5; Nbs injected in three-fold dilutions from 100 to 0.4 nM; 25 °C, HEPES buffered saline, 30 µL/min; association 180 s, dissociation 600 s; table gives two sets of rate constants (ka1/kd1, ka2/kd2); affinity of the bivalent Nb called apparent
Details: both partners purified

B1: monovalent anti-Macrophage Mannose Receptor nanobody, (m)anti-MMR Nb (VHH)
VHH: QVQLQESGGGLVQPGGSLRLSCAASGNIFSINAIGWYRQAPGKQRELVATITLSGSTNYADSVKGRFSISRDNAKNTVYLQMNSLKPEDTAVYYCNANTYSDSDVYGYWGQGTQVTVSS
notes: anti-MMR nanobody MMRCl1; also called (m)anti-MMR Nbs; MMRCl1; source: E. coli WK6, periplasmic extract, purified (Ni-NTA, SEC); not shown: His6, C-terminal, kept
  Kd: 25 nM
